Experimental findings from the DeepSol protein solubility set are described below.

This data set in a line: soluble on expression in E. coli; label from the status in PepcDB or PDB records.
Regarding “MSLDDSVFVGHLKDVTGATGFVGKLYGEGVNDALVWINAHGGIDGTRLDFESVDYAYEVPRAIALYKKWTSQNKMVALQGWGTGDTEALISFVAKDKIPVLSGSYSGHLTDPTGKNPKTQKPAPYNFFYGPSYSDACRALVQWAEGDWKAKGKEGKPKFIHAGDNHPYPNAPKEACADFATELGFEVLPPVVVSLKPGDFKAQCLTIKQSGANYVYVANLGPSVVSLVKSCKTVGTDAQYMANIWGGDSETQKTLGADGDGYVFVAANAFWGDDAPGLALVREIAGSETPRTHHYIRGVCSTFYMKEAMEWAKAHGGLTGESIRNAMYARKDWVPKGLEGVCIPSTWTPEDHRGMTKVFIYQMQNGSEIHKIAETDLPRRDDWLGYEGHHHHHH”, the “soluble on expression in E. coli” value is listed as “not soluble”.
Next, “MANVYTAEATATGGRAGTTRSSDDRLNLDLSVPAEMGGDGGPGTNPEQLFAAGYAACFQGALGVVSRRNKIDVPADSTITARVGLQKAGLAFALDVELEGHFPGLSREQAEGLMHAAHEVCPYSAATRNNVDVRLKVRE”: “soluble”.
Next, “MASFCNSWKRKHNEAIKLSEEIDGMILERSSLAETSSYARGHASYMRRKITILANGVQTLKNLLAESQGKSISAKEMSRCKDMVEDLRSKAYQMASALDMLKFSNIGSLLGQDDIMSRVIDMDNQEIVGFQRTTMKGKLKGVMHLKREALAMNMELGLQTRLIDRLDHHVDVSASDVEELQRSIDTGVCMTLLLSVVVVVFGLSEFVKFGRRRILG”: “soluble”; “MKHLVICIALLTVGACCFAQQKKVASHKAASGNPVFQGWYADPEGIIYDDTYWIFPTWSDLYENQTFFDCFSSKDLVNWTKHASVLDTTAVKWAKKAMWAPSVIRKNGKYYIFFGANDVHEGEIGGIGVAVSDRPEGPYKDLLGKPLINEIVNGAQPIDQFVYNDNGHYYMYYGGWGHCNVVQLNDDFTGLVPFEDGTVYKEVTPENYVEGPFMFKKDGKYYFMWSEGGWGGPDYSVAYAISDSPFGPFKRVAKILQQDPSVATSAGHHSLLHAPGTDDYYIVYHRRPLNDNARDHRVTCIDKMTFDKDGFINPVKMTFEGVPAQKIKKSKKK”: “not soluble”; “MSLSKSDDGDSEESFSISVQSGFEAMSQELCIVMCLKDLTSIVDIKTSSRPAMIGSLTDGSTETFWESGDEDKNKTKNITINCVKGINARYVSVHVDNSRDLGNKVTSMTFLTGKAVEELCRIKQVDLDSRHIGWVTSELPGGDNQIIKIELKGPENTLRVRQVKVLGWKDGESTKIAGQISASVAQQRSCEAETLRVFRLITSQVFGKLISGDAEPTPEQEEKALLSSPEGEEKATSDADLKEHMVGIIFSRSKLTNLQKQVCAHIVQAIRMEATRVREEWEHAISSKENANSQPSDEDASSDAYCFELLSMVLALSGSNVGRQYLAQQLTLLQDLFSLLHTASPRVQRQVTSLLRRVLPEVTPNRLASIIGVKSLPPADISDIIHSTEKGDWNKLGILDMFLGCIAKALTVQLKAKGTTITGTAGTTVGKGVTTVTLPMIFNSSYLRRGESHWWMKGSTPTQISEIIIRLIKDMAAGHLSEAWSRVTKNAIAETIIALTKMEEEFRSPVRCIATTRLWLALASLCVLDQDHVDRLSSGRWMGKDGQQKQMPMCDNHDDGETAAIILCNICGNLCTDCDRFLHLHRRTKTHQRQVFKEEEEAIKVDLHEGCGRTKLFWLMALADSKTMKAMVEFREHTGKPTTSSSEACRFCGSRSGTELSAVGSVCSDADCQEYAKIACSKTHPCGHPCGGVRNEEHCLPCLHGCDKSATTLKQDADDMCMICFTEALSAAPAIQLDCSHVFHLQCCRRVLENRWLGPRITFGFISCPICKNKINHIVLKDLLDPIKELYEDVRRKALMRLEYEGLHKSEAITTEGHHHHHH”: “not soluble”.
As to “MGSDKIHHHHHHMARKISDYHLKKREETQKKFIDLLAQNNYIHISGDMVNSKTKVKVRCRHNHTWQVNYEHFKKGTRCPECRIIEGSLKKRLNISTVKSRYALKGYEILSTYKNCHSKLKAKCPEGHIWEHLPSNFFKGEECFQCKGAKKYTVECAQAAFSDRGFIPLFDTYHHNKENLPFLCKEHIDLGVQYAPLHNMVRGLANCRKCYLLLFTGENSSRWKGGISSLNKTLREAVYEVWTKPSLEKYSFKCAITNSTKDLHVHHYKKNFSEIVKEALSNLSFEL”, the “soluble on expression in E. coli” value is “not soluble”.
Then “MGSDKIHHHHHHMTALDKTGLKILNFQQLLNQLTAKTQELFGDDVNTDQNSALGMYIRVISWLQNIVNQDLEAVYYSSFVDQAEGVSLDRLGSNYSVTRNPAQAATVMLDFTGTTGTVIPEETVYTTESGVEFEMVDTVTLDDSGKGSGEAVCTALDETGNVAPNTISVQGENIAGIESVTNPTQASGGTEIETDDAYRQRIHLSMESQPGPTYYGLYTGLYALPGVEQVQIVPNLTMETDSYGNPPKSLHFYVRGGREDDVAQAILDNIAAGIQTVGKIKEAVKDIGGHTHDVFFDTATVVPIYVNMSLKTSDDFNSETSPVEIVQAIKDYLSGLIMGDKVVFTKLYQAIYNISGVEYAQVTLGRDKSAMGMADIQLDQFETAVVANDSDVEVTVDDG”, with “not soluble”; and “MKVPHVIAELVSEFSGFQHTPDFKASRSTGNFEEGSEEGTSGSHKPEEHHHKEHHGHSLYFGKHSGKKHLPPVVENDGDTHSNHSDVSGSGSSLKEKKHHGLTAHFKDLFHIGHHHHHHGEHPHSKQNSGASTPARKNSTGSECPCSKQEQCHKHSINITVGADEVPTVLATPPNEQNILHAHFIKNQSPCISRVVSSSSLKEKLHKIKRTTSSDSDTDFPEKKCSVASYRVVTH”, with “not soluble”; and “MSHPRYKSLLNRDRIVEAFESGVLAKGGMIAHGRGETFDYLIGESTTDAALNSIKVSAALLVLAENPVISVNGNSVALAKDEFVELAKELNGKIEVNLFYRTTEREEKIKDVFESDINGGIVLLGIDNADKQIPGIDHLRGKVSESGIYTSDVVLVPLEDGDRAEALVKMGKTVIAIDLNPLSRTARKSTISIIDELTRCIPLITEYVREYKKMDRAELLKIVENYDNEENLRNILNLISKRLTSVDLEHHHHHH”, with “not soluble”.
Take “MGSDKIHHHHHHMKISLGPIHYYWSKENIEQFYRRAEHWPVDIVYLGETVCAKRRALRSADWLDIAARLTDAGKEVVLSTLALLEANSDLLQLERICANTHYLVEANDMSAVHLLAGRGPFVIGPHINCYNAETLSLLADLGGRRWIPPVELPATTIAMLQNTRPETMETEAFAYGYLPLSFSARCFTARADNVGKDACELRCIKDPEGRALFTQEQERLFTINGIQLQSGIPCNLLNETVAMSEMGMDIVRISPQLTATESVIRAFHAVLNGEISPPVEYGSPACNGYWYGKPGMQFSPVQGH”: the “soluble on expression in E. coli” value is reported as “not soluble”.
Regarding “KEPEMRPLGAYDTEELIPVLDYLDQQKINYKLDGNTVSVESSEYNSIKLGMVRSGVNQATEAGDDILLQDMGFGVSQRLEQERLKLSRERQLAQAIEEMKQVRKARVLLALPKHSVFVRHNQEASASVFLTLSTGANLKQQEVDSIVDMVASAVPGMKTSRITVTDQHGRLLSSGSQDPASAARRKEQELERSQEQALREKIDSVLLPILGFGNYTAQVDIQMDFSAVEQTRKRFDPNTPSTRSEYALEDYNNGNMVAGIPGALSNQPPADASIPQDVAQMKDGSVMGQGSVRKESTRNFELDTTISHERKQTGTVARQTVSVAIKDRRQVNPDTGEVTYTPMSEGEINAIRQVLIGTVGFDQSRGDLLNVLSVKFAEPETEQLVDQPIWEHPNFND”, the “soluble on expression in E. coli” value is reported as “not soluble”.
Next, “MTSRTPLVSVLPDFPWDSLASAKAKAASHPDGIVNLSVGTPVDPVAPSIQIALAEAAGFSGYPQTIGTPELRAAIRGALERRYNMTKLVDASLLPVVGTKEAIALLPFALGISGTVVIPEIAYPTYEVAVVAAGCTVLRSDSLFKLGPQIPSMMFINSPSNPTGKVLGIPHLRKVVKWAQENNVILAADECYLGLGWDDENPPISILDPRVCDGDHTNLIAIHSLSKTSNLASYRAGYLVGDPALIGELTEVRKNLGLMVPFPIQQAMIAALNDDDQEAGQKLTYAIRRAKLMRALLESGFQVDNSEAGLYLWATREEPCRDTVDWFAERGILVAPGDFYGPRGAQHVRVAMTETDERVDAFVSRLS”: “soluble”.
As for “TINPVMQQVAYDQLTAKGYTGSVVAIEPSTGRILTMVSTPSYDPNSLASHDGTETTQAWEALNADPEKPLINRAVSQTYPPGSTFKVVVTAAALAAGTTPDTQLTAAPQITLPGTSTTLENYNGSTCGGAPTASLREAFARSCNTAFVELGVKTGTDAVSDQSSALGIGGQMPGVPFPVADSTIGSIPDDAALGQSSIGQRDVALTPLQNAMIAATVANGGVRMQPQLVSELQGPDLSNLATTNPVSEGQAMSSQVAATLTDLMIGSENNTSGEGKIPGVQIASKTGTAEHGTDPRNTPPHAWYIGFAPAQNPTVAIAVIVEDGGDRALAATGGSVAAPIGRAVIAAGLQGG”, the “soluble on expression in E. coli” value was “not soluble”.
Next, “MACTAADVVEEDLMSDRIANAQLRGKVMSAEEAAQFVNHGDKVGVSGFTGAGYPKALPTAIAERAKEAHARGDEYMIDLFTGASTAPDCDGVLAEADALRFRTPYQSDPILRSKINDGTTLYADYHLSESGIYVEQGFFGQMNVAIVEAVRITEEGHIVPSSSVGNNVEYLDNAEKIIIEVNSWQSEELEGMADIYRMNKLPNRQPIPITEAGQRIGTTYIDIDLSKVVAVVETDAPDRNAPFKPLDETSKQIAGHFLDFLEGEVAAGRLTYDGYVMQSGVGNVPNAVMAGLLDSKFENIKAYTEVIQDGMVDLIDAGKMTVASATSFSLSPEYAERMNAEAKNYAQKIILRPQQISNHPEVVRRLGLICTNGLIEADIYGNVNSTNVTGSRMMNGVGGSADFTRNGFISSFITPSVAKGGDISAFVPFVSHVDHTEQDVKVLISEYGYADLRGLAPRQRVEKIIAIAHPDYRPLLQDYYDRALAFAKEKKIMQTPHLLGEALSFHQRFQETGSMKK”: “not soluble”; “GSHMTMSRRNTDAITIHSILDWIEDNLESPLSLEKVSERSGYSKWHLQRMFKKETGHSLGQYIRSRKMTEIAQKLKESNEPILYLAERYGFESQQTLTRTFKNYFDVPPHKYRMTNMQGESRFLHPLNHYNS”: “soluble”; “MGSDKIHHHHHHMRPETAIIEIHGQYRIHTEFYGNPAAQQTIILVNGSLSTTASFAQTVKYLQPHYNVVLYDQPYAGQSKPHNENHTPISKECEARILLELIERFRAEVVMSFSWGGVATLLALAQRPGRIRRAVVNSFSPQLNPAMLDYLHRGLDYLAACDRTQIGNLVNETIGRYLPQLFKRYNFRHVSSLDEHEYHQMHFHIREVLRLNADSYTESFAGIEIPMLFMNGELDIYTTPHEARQFGQLIRGAEFHTIRNAGHFIDVEHKAAWQQTQDALLAFLRPQRTQPLNPIYRPQPNGASVPLAALAS”: “not soluble”.
Take “MGSDKIHHHHHHMTPDEVLRIASMHAVRGEYETALSLLRQLHAFIPDDIQVMRALGIVLANSGDHEAALPFLHQVAQRQCTPDNVMGLIKVLGAMRRFPDIDHVCSVVWPHIGDELAFLGEWGYANLLMERFDRALEILGKALALDPHFRPALHNGASALVRSGRGEEAVSMYSRLGRAWASTEAVARDFVGEYAALSQSYDDNPLHHYFSARLVRLVQDARPEAMPDSVLELGCGSGLLSQALPQKPDRLVGIDISPDMLARARTRGAYSSLLCGDLVEVMAGLEEPFDAVMSAGVLCYLPDLRKVFANVARLLSPGGVFAFSVDPVGDDMEIAEMEPGEFAHSRPYLRALAAETGLTEIRIDIDLHRGAPGFWCSFGKAG”: the “soluble on expression in E. coli” value is “not soluble”.
Next, “MSLDNQPLIVIYDEGAALPKDIVTELNGVAPLVLVINSNEHTRERISYFSRFGHVVDGSDIARAVSELAHLNPAGIVTFSERALRLTATLAKHLNLPFHNLETVYRLTDKYKQRVALQEAGIESIRFYLINTVSDWEQAVEQVCLPAVLKPAYGGGSIDTYLIEDPQTGKSLVEKLLSNKQVGFDGGRSLVLEEFLQGRPSLPFGDYVSVESLVVNGEIKHINVTGKMPLSPPFREYGHIWPSVLSDSEQNQIYALTSSAINVLGVNRGITHTELKLTEQGPRIIEVNGRVGGGINEMAKISLNISLLEMAARLALGKMIDEGHHHHHH”: “not soluble”.
